# Source: publication PMC4807369
# Target: IrmA secreted from E. coli MG1655 carrying a plasmid encoding irmA (strain MS5667) (Escherichia coli)
# Experiment: native gel or EMSA
substance,measurement,value
IrmA secreted from E. coli MG1655 carrying a plasmid encoding irmA (strain MS5667) (natural protein),stoichiometry N,2
